This data set is described as follows: total protein half-life in vivo (active degradation + dilution); higher = more stable protein.
The mark [1] stands for this setting: E. coli NCM3722 delta-clpP delta-lon delta-hslV, growth: N-lim chemostat, doubling time 6 h.
Setting [2] is: E. coli NCM3722 delta-clpP, growth: N-lim chemostat, doubling time 6 h.
Where [3] appears, read: E. coli NCM3722 delta-hslV, growth: N-lim chemostat, doubling time 6 h.
[4] abbreviates: E. coli NCM3722 delta-lon, growth: N-lim chemostat, doubling time 6 h.
The mark [5] stands for this setting: E. coli NCM3722 delta-smpB, growth: N-lim chemostat, doubling time 6 h.
The mark [6] stands for this setting: wild type E. coli NCM3722, growth: C-lim chemostat, doubling time 3 h.
Where [7] appears, read: wild type E. coli NCM3722, growth: C-lim chemostat, doubling time 6 h.
The mark [8] stands for this setting: wild type E. coli NCM3722, growth: C-lim chemostat, doubling time 12 h.
Where [9] appears, read: wild type E. coli NCM3722, growth: N-lim chemostat, doubling time 6 h.
Setting [10] is: wild type E. coli NCM3722, growth: N-lim chemostat, doubling time 12 h.
[11] abbreviates: wild type E. coli NCM3722, growth: P-lim chemostat, doubling time 6 h.
Setting [12] is: wild type E. coli NCM3722, growth: P-lim chemostat, doubling time 12 h.

± gives the standard deviation of the averaged measurements.

Consider “MLNQKIQNPNPDELMIEVDLCYELDPYELKLDEMIEAEPEPEMIEGLPASDALTPADRYLELFEHVQSAKIFPDSKTFPDCAPKMDPLDILIRYRKVRRHRDFDLRKFVENHFWLPEVYSSEYVSDPQNSLKEHIDQLWPVLTREPQDHIPWSSLLALPQSYIVPGGRFSETYYWDSYFTMLGLAESGREDLLKCMADNFAWMIENYGHIPNGNRTYYLSRSQPPVFALMVELFEEDGVRGARRYLDHLKMEYAFWMDGAESLIPNQAYRHVVRMPDGSLLNRYWDDRDTPRDESWLEDVETAKHSGRPPNEVYRDLRAGAASGWDYSSRWLRDTGRLASIRTTQFIPIDLNAFLFKLESAIANISALKGEKETEALFRQKASARRDAVNRYLWDDENGIYRDYDWRREQLALFSAAAIVPLYVGMANHEQADRLANAVRSRLLTPGGILASEYETGEQWDKPNGWAPLQWMAIQGFKMYGDDLLGDEIARSWLKTVNQFYLEQHKLIEKYHIADGVPREGGGGEYPLQDGFGWTNGVVRRLIGLYGEP”, for which the “total protein half-life in vivo” value runs as follows: under setting [1], 5.33 ± 0.21 h; under setting [2], 3.703 ± 0.019 h; under setting [3], 2.44 ± 0.17 h; under setting [4], 2.97 ± 0.09 h; under setting [5], 2.61 ± 0.21 h; under setting [6], 1.15 h. Also, the “total protein half-life in vivo” value amounted to 2.95 h under setting [7]; 3.87 ± 0.14 h under setting [8]; 2.47 ± 0.1 h under setting [9]; 3.37 ± 0.04 h under setting [10]; 2.42 ± 0.43 h under setting [11]; 4.75 ± 0.37 h under setting [12].
“MVKVYAPASSANMSVGFDVLGAAVTPVDGALLGDVVTVEAAETFSLNNLGRFADKLPSEPRENIVYQCWERFCQELGKQIPVAMTLEKNMPIGSGLGSSACSVVAALMAMNEHCGKPLNDTRLLALMGELEGRISGSIHYDNVAPCFLGGMQLMIEENDIISQQVPGFDEWLWVLAYPGIKVSTAEARAILPAQYRRQDCIAHGRHLAGFIHACYSRQPELAAKLMKDVIAEPYRERLLPGFRQARQAVAEIGAVASGISGSGPTLFALCDKPETAQRVADWLGKNYLQNQEGFVHICRLDTAGARVLEN”: the “total protein half-life in vivo” value by setting is: under setting [1], 5.55 ± 0.88 h; under setting [2], 3.7 ± 0.34 h; under setting [3], 4.29 ± 0.69 h; under setting [4], 5.16 ± 0.65 h; under setting [5], 4.35 ± 0.11 h; under setting [6], 2.73 ± 0.61 h. The “total protein half-life in vivo” value under setting [7] came to 5.63 ± 0.58 h; the “total protein half-life in vivo” value under setting [8] was 8.58 ± 0.091 h; the “total protein half-life in vivo” value under setting [9] is 4.31 ± 0.33 h; the “total protein half-life in vivo” value under setting [10] was determined as 6.8 ± 0.37 h; the “total protein half-life in vivo” value under setting [11] was 6.04 ± 0.13 h; the “total protein half-life in vivo” value under setting [12] worked out at 12.6 ± 0.79 h.
Consider “MHKAILNSDLIATKAGDVTVYNYDGETREYISTSNEYLAVGVGIPACSCLDAPGTHKAGYAICRSADFNSWEYVPDHRGETVYSTKTGESKEIKAPGDYPENTTTIAPLSPYDKWDGEKWVTDTEAQHSAAVDAAEAQRQSLIDAAMASISLIQLKLQAGRKLTQAETTRLNAVLDYIDAVTATDTSTAPDVIWPELPEA”, for which the “total protein half-life in vivo” value by setting is: under setting [2], 2.37 h; under setting [4], 1.83 h; under setting [5], 2.04 ± 0.18 h; under setting [8], 3.87 h; under setting [9], 3.06 h; under setting [10], 3.07 ± 0.66 h.
“MWSEYSLEVVDAVARNGSFSAAAQELHRVPSAVSYTVRQLEEWLAVPLFERRHRDVELTAAGAWFLKEGRSVVKKMQITRQQCQQIANGWRGQLAIAVDNIVRPERTRQMIVDFYRHFDDVELLVFQEVFNGVWDALSDGRVELAIGATRAIPVGGRYAFRDMGMLSWSCVVASHHPLALMDGPFSDDTLRNWPSLVREDTSRTLPKRITWLLDNQKRVVVPDWESSATCISAGLCIGMVPTHFAKPWLNEGKWVALELENPFPDSACCLTWQQNDMSPALTWLLEYLGDSETLNKEWLREPEETPATGD [P0ACR2]”: the “total protein half-life in vivo” value runs as follows: under setting [1], 5.69 ± 0.2 h; under setting [2], 5.02 ± 0.17 h; under setting [3], 4.85 ± 1.3 h; under setting [5], 4.6 ± 0.3 h; under setting [6], 2.594 ± 0.0057 h; under setting [7], above 8 h. Further, the “total protein half-life in vivo” value turned out to be 10.5 ± 0.11 h under setting [8]; 4.8 ± 0.11 h under setting [9]; 8.76 ± 0.09 h under setting [10]; 5.31 ± 0.39 h under setting [11]; 8.51 ± 0.64 h under setting [12].
For the sequence “MRWQGRRESDNVEDRRNSSGGPSMGGPGFRLPSGKGGLILLIVVLVAGYYGVDLTGLMTGQPVSQQQSTRSISPNEDEAAKFTSVILATTEDTWGQQFEKMGKTYQQPKLVMYRGMTRTGCGAGQSIMGPFYCPADGTVYIDLSFYDDMKDKLGADGDFAQGYVIAHEVGHHVQKLLGIEPKVRQLQQNATQAEVNRLSVRMELQADCFAGVWGHSMQQQGVLETGDLEEALNAAQAIGDDRLQQQSQGRVVPDSFTHGTSQQRYSWFKRGFDSGDPAQCNTFGKSI”, the “total protein half-life in vivo” value runs as follows: under setting [1], 5.3 ± 0.69 h; under setting [2], 6.06 ± 0.32 h; under setting [3], 5.36 ± 0.17 h; under setting [5], 4.87 ± 0.34 h; under setting [6], 2.861 ± 0.027 h; under setting [7], 5.19 ± 0.22 h. The “total protein half-life in vivo” value came to 7.6 ± 3 h under setting [8]; 5.54 ± 0.5 h under setting [9]; 11.2 ± 2 h under setting [10]; 3.37 ± 0.57 h under setting [11]; 8.39 ± 3.7 h under setting [12].
In the case of “MKYDTSELCDIYQEDVNVVEPLFSNFGGRASFGGQIITVKCFEDNGLLYDLLEQNGRGRVLVVDGGGSVRRALVDAELARLAVQNEWEGLVIYGAVRQVDDLEELDIGIQAMAAIPVGAAGEGIGESDVRVNFGGVTFFSGDHLYADNTGIILSEDPLDIE [P0A8R0]”, the “total protein half-life in vivo” value is 5.37 ± 0.18 h under setting [1]; 5.11 ± 0.26 h under setting [2]; 5.16 ± 0.12 h under setting [3]; 4.57 ± 0.28 h under setting [4]; 4.26 ± 0.1 h under setting [5]; 3.25 ± 0.3 h under setting [6]. Also, the “total protein half-life in vivo” value was determined as 6.31 ± 1.1 h under setting [7]; 13.4 ± 0.22 h under setting [8]; 5.06 ± 0.22 h under setting [9]; 8.11 ± 0.27 h under setting [10]; 6.02 ± 0.41 h under setting [11]; 12.7 ± 1.7 h under setting [12].
